Reference: patent publication US12552850B2, “GLP-1/GIP dual agonist, long-acting conjugate thereof, and pharmaceutical composition comprising same” (HANMI PHARM. CO., LTD., priority 2020, dated 2026)
Square brackets hold non-standard residues; d marks the D form. Ends that are not written are not given here. Aib = CC(C)(N)C(=O)O

Columns and labels:
human GLP-1 receptor = biological target: T1, human GLP-1 receptor (Homo sapiens, UniProt P43220); test: In vitro cAMP activity in human GLP-1 receptor-expressing CHO cells (LANCE cAMP kit); assay type: cell-based; settings: long-acting conjugates (peptide-PEG-immunoglobulin Fc); relative titer from cAMP EC50, human GLP-1 receptor CHO cells
T1 construct: expressed in transfected cells; host or cells: Chinese hamster ovary (CHO)
T1 sequence (P43220 24-463): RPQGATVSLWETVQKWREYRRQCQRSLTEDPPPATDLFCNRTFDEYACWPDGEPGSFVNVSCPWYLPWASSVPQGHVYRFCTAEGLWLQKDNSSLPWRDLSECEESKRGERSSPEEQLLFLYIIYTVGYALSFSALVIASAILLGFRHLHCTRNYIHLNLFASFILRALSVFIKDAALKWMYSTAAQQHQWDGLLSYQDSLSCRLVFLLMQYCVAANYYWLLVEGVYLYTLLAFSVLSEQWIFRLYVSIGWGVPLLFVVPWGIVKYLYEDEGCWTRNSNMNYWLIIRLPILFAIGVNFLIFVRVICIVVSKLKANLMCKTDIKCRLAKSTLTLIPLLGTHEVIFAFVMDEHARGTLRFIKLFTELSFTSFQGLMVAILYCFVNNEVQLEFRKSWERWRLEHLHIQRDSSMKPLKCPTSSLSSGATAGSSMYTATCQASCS
Protocol: (§1) In order to measure the activity of the GLP-1/GIP dual agonist prepared in Example 1, an in vitro cell activity was measured using cell lines transformed with the GLP-1 receptor and the GIP receptor, respectively. The cell lines are transformed to express human GLP-1 and human GIP receptor genes in Chinese hamster ovary (CHO), respectively, and are suitable for measuring the activities of GLP-1 and GIP. Therefore, the activity for each part was measured using each transformed cell line.
To measure the GLP-1 activity of the dual agonist prepared in Example 1, human GLP-1 was diluted from 50 nM to 0.000048 nM by 4-fold serial dilution, and the dual agonist prepared in Example 1 was diluted from 50 nM to 0.000048 nM by 4-fold serial dilution. The culture medium was removed from the cultured human GLP-1 receptor-expressing CHO cells, 5 μl of each of the serially diluted materials was added to the cells, and then 5 μl of buffer containing cAMP antibody was added to the cells, followed by 15 minutes of incubation at room temperature. Then, cells were lysed by adding 10 μl of detection mix containing cell lysis buffer, and reacted at room temperature for 90 minutes. The cell lysate after the reaction had been completed, was applied to the LANCE cAMP kit (PerkinElmer, USA) to calculate the EC50 value through the accumulated cAMP, and then compared with each other.
(§2) In order to measure the activity of the long-acting conjugate of SEQ ID NOs: 20, 36, and 40 prepared in Example 3, the cell activity in vitro was measured using cell lines transformed with the GLP-1 receptor and the GIP receptor, respectively, in the same manner as in Example 2.
(§3) The cell lines were transformed to express the human GLP-1 receptor and the human GIP receptor genes in Chinese hamster ovary (CHO), respectively, and were each the same cell line used in Example 2. Activity for each part was measured using each transformed cell line. […]

human GIP receptor = biological target: T2, human GIP receptor (Homo sapiens, UniProt P48546); test: In vitro cAMP activity in human GIP receptor-expressing CHO cells (LANCE cAMP kit); assay type: cell-based; settings: long-acting conjugates (peptide-PEG-immunoglobulin Fc); relative titer from cAMP EC50, human GIP receptor CHO cells
T2 construct: expressed in transfected cells; host or cells: Chinese hamster ovary (CHO)
T2 sequence (P48546 22-466): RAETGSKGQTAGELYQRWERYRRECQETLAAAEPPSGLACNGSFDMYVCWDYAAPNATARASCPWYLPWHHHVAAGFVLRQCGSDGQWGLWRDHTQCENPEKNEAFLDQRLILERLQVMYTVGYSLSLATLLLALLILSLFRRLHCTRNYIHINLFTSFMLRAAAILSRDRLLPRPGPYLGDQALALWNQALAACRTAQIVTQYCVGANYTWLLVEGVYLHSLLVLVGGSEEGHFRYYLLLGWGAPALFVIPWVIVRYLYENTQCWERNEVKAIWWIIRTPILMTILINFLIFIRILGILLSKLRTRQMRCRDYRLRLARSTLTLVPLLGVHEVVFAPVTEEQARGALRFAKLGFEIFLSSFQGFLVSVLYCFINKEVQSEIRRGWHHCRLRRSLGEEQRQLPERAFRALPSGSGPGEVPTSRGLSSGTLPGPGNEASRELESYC
Protocol: as §1
To measure the GIP activity of the dual agonist prepared in Example 1, human GIP was diluted from 50 nM to […] by 4-fold serial dilution, and the dual agonist prepared in Example 1 was diluted from 50 nM to 0.000048 nM by 4-fold serial dilution. The culture medium was removed from the cultured human GIP receptor-expressing CHO cells, 5 μl of each of the serially diluted materials was added to the cells, and then 5 μl of buffer containing cAMP antibody was added to the cells, followed by 15 minutes of incubation at room temperature. Then, cells were lysed by adding 10 μl of detection mix containing cell lysis buffer, and reacted at room temperature for 90 minutes. The cell lysate after the reaction had been completed, was applied to the LANCE cAMP kit (PerkinElmer, USA) to calculate the EC50 value through the accumulated cAMP, and then compared with each other.
as §2, §3

Row | Substance | In vitro activity compared to native peptide (%) vs human GLP-1 (human GLP-1 receptor) | In vitro activity compared to native peptide (%) vs human GIP (human GIP receptor)
1 | 20 (Y[Aib]EGTFTSDYSI[Aib]LDKQAA[Aib]AFVQWLIAGGPSSGAPPPSC) [compound 20] | 7.5% | 62.1%
2 | 36 (Y[Aib]EGTFTSDYSI[Aib]LDKQAQQAFVQWLIAGGPSSGAPPPSC) [compound 36] | 3.9% | 26.9%
3 | 40 (Y[Aib]EGTFTSDYSIALEKQAQRDFVNWLLAGGPSSGAPPPSC) [compound 40] | 10.1% | 24.7%
